Assay results reported in US20150344570A1 (published 2015).

Legend:
FcγRIIIa F = FcγRIIIa F (human, UniProt P08637 17-208); assay: SPR (Biacore), KD
FcγRIIIa V = FcγRIIIa V (human, UniProt P08637 17-208); assay: SPR (Biacore), KD
FcγRIIIa V, sequence (P08637 17-208): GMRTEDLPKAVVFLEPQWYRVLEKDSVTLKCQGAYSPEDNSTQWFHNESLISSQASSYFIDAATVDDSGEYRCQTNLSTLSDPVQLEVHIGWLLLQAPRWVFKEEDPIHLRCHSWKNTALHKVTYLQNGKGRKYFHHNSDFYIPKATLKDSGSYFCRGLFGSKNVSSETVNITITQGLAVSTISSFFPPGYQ

FcγRIIIa F, sequence (P08637 17-208): as above

B1: H240-Kn193/H240-Hl204/L73-k0 (antibody, human IgG1, kappa)
heavy 1: QDQLVQSGAEVKKPGASVKVSCKASGFNIKDTYIQWVRQAPGQGLEWMGRIDPLRKQTKYREKFEGRVTITADTSTNTAYMELSSLRSEDTAVYYCVRSGREFDYWGQGTLVTVSSASTKGPSVFPLAPSSKSTSGGTAALGCLVKDYFPEPVTVSWNSGALTSGVHTFPAVLQSSGLYSLSSVVTVPSSSLGTQTYICNVNHKPSNTKVDKKVEPKSCDKTHTCPPCPAPEYNWGPMVFLFPPKPKDTLMISRTPEVTCVVVDVSDEDPEVKFNWYVDGVEVHNAKTKPRERQYNATYRVVSVLTVLHQDWLNGKEYKCKVSNKDLPAPIEKTISKAKGQPREPQVCTLPPSRDELTKNQVSLWCLVKGFYPSDIAVEWESNGQPENNYKTTPPVLDSDGSFFLYSKLTVDKSRWQQGNVFSCSVMHEALHNHYTQKSLSLSP
heavy 2: QDQLVQSGAEVKKPGASVKVSCKASGFNIKDTYIQWVRQAPGQGLEWMGRIDPLRKQTKYREKFEGRVTITADTSTNTAYMELSSLRSEDTAVYYCVRSGREFDYWGQGTLVTVSSASTKGPSVFPLAPSSKSTSGGTAALGCLVKDYFPEPVTVSWNSGALTSGVHTFPAVLQSSGLYSLSSVVTVPSSSLGTQTYICNVNHKPSNTKVDKKVEPKSCDKTHTCPPCPAPELLTGPSVFLFPPKPKDTLMISRTPEVTCVVVDVSHEEPEVKFNWYVDGVEVHNAKTKPREEQYNSTYRVVSVLTVLHQDWLNGKEYKCKVSNDALPKPEEETISKAKGQPREPQVYTLPPSRCELTKNQVSLSCAVKGFYPSDIAVEWESNGQPENNYKTTPPVLDSDGSFFLVSKLTVDKSRWQQGNVFSCSVMHEALHNHYTQKSLSLSP
light: DIQMTQSPSSLSASVGDRVTITCRASQDIHKYIAWYQQKPGQAPRLLIQYTSTLQPGVPSRFSGSGSGTDYTFTISSLQPEDIATYYCLQYEQLRTFGGGTKVEIKRTVAAPSVFIFPPSDEQLKSGTASVVCLLNNFYPREAKVQWKVDNALQSGNSQESVTEQDSKDSTYSLSSTLTLSKADYEKHKVYACEVTHQGLSSPVTKSFNRGEC
notes: Y235N and E294R in H240-Kn120; G236T and I332E in H240-Hl068; also called H240-Kn193/H240-HI204/L73-k0
fold binding against the variant before introduction of I332E and Y235N (FcγRIIIa F): 2 times
fold binding against the variant before introduction of I332E and Y235N (FcγRIIIa V): 8 times

B2: H240-Kn184/H240-Hl068/L73-k0 (antibody, human IgG1, kappa)
heavy 1: QDQLVQSGAEVKKPGASVKVSCKASGFNIKDTYIQWVRQAPGQGLEWMGRIDPLRKQTKYREKFEGRVTITADTSTNTAYMELSSLRSEDTAVYYCVRSGREFDYWGQGTLVTVSSASTKGPSVFPLAPSSKSTSGGTAALGCLVKDYFPEPVTVSWNSGALTSGVHTFPAVLQSSGLYSLSSVVTVPSSSLGTQTYICNVNHKPSNTKVDKKVEPKSCDKTHTCPPCPAPEEYWGPMVFLFPPKPKDTLMISRTPEVTCVVVDVSDEDPEVKFNWYVDGVEVHNAKTKPREEQYNATYRVVSVLTVLHQDWLNGKEYKCKVSNKDLPAPIEKTISKAKGQPREPQVCTLPPSRDELTKNQVSLWCLVKGFYPSDIAVEWESNGQPENNYKTTPPVLDSDGSFFLYSKLTVDKSRWQQGNVFSCSVMHEALHNHYTQKSLSLSP
heavy 2: QDQLVQSGAEVKKPGASVKVSCKASGFNIKDTYIQWVRQAPGQGLEWMGRIDPLRKQTKYREKFEGRVTITADTSTNTAYMELSSLRSEDTAVYYCVRSGREFDYWGQGTLVTVSSASTKGPSVFPLAPSSKSTSGGTAALGCLVKDYFPEPVTVSWNSGALTSGVHTFPAVLQSSGLYSLSSVVTVPSSSLGTQTYICNVNHKPSNTKVDKKVEPKSCDKTHTCPPCPAPELLGGPSVFLFPPKPKDTLMISRTPEVTCVVVDVSHEEPEVKFNWYVDGVEVHNAKTKPREEQYNSTYRVVSVLTVLHQDWLNGKEYKCKVSNDALPKPIEETISKAKGQPREPQVYTLPPSRCELTKNQVSLSCAVKGFYPSDIAVEWESNGQPENNYKTTPPVLDSDGSFFLVSKLTVDKSRWQQGNVFSCSVMHEALHNHYTQKSLSLSP
light: DIQMTQSPSSLSASVGDRVTITCRASQDIHKYIAWYQQKPGQAPRLLIQYTSTLQPGVPSRFSGSGSGTDYTFTISSLQPEDIATYYCLQYEQLRTFGGGTKVEIKRTVAAPSVFIFPPSDEQLKSGTASVVCLLNNFYPREAKVQWKVDNALQSGNSQESVTEQDSKDSTYSLSSTLTLSKADYEKHKVYACEVTHQGLSSPVTKSFNRGEC
fold binding activity against H240-Kn033/H240-Hl033/L73-k0 (FcγRIIIa F): ≥ 100 fold
fold binding activity against H240-Kn033/H240-Hl033/L73-k0 (FcγRIIIa V): ≥ 100 fold

B3: H240-Kn202/H240-Hl076/L73-k0 (antibody, human IgG1, kappa)
heavy 1: QDQLVQSGAEVKKPGASVKVSCKASGFNIKDTYIQWVRQAPGQGLEWMGRIDPLRKQTKYREKFEGRVTITADTSTNTAYMELSSLRSEDTAVYYCVRSGREFDYWGQGTLVTVSSASTKGPSVFPLAPSSKSTSGGTAALGCLVKDYFPEPVTVSWNSGALTSGVHTFPAVLQSSGLYSLSSVVTVPSSSLGTQTYICNVNHKPSNTKVDKKVEPKSCDKTHTCPPCPAPEEQWGPMVFLFPPKPKDTLMISRTPEVTCVVVDVSDEEPEVKFNWYVDGVEVHNAKTKPREEQYNATYRVVSVLTVLHQDWLNGKEYKCKVSNKALPAPIEKTISKAKGQPREPQVCTLPPSRDELTKNQVSLWCLVKGFYPSDIAVEWESNGQPENNYKTTPPVLDSDGSFFLYSKLTVDKSRWQQGNVFSCSVMHEALHNHYTQKSLSLSP
heavy 2: QDQLVQSGAEVKKPGASVKVSCKASGFNIKDTYIQWVRQAPGQGLEWMGRIDPLRKQTKYREKFEGRVTITADTSTNTAYMELSSLRSEDTAVYYCVRSGREFDYWGQGTLVTVSSASTKGPSVFPLAPSSKSTSGGTAALGCLVKDYFPEPVTVSWNSGALTSGVHTFPAVLQSSGLYSLSSVVTVPSSSLGTQTYICNVNHKPSNTKVDKKVEPKSCDKTHTCPPCPAPELLGGPSVFLFPPKPKDTLMISRTPEVTCVVVDVSHEEPEVKFNWYVDGVEVHNAKTKPREEQYNSTYRVVSVLTVLHQDWLNGKEYKCKVSNDALPMPIEETISKAKGQPREPQVYTLPPSRCELTKNQVSLSCAVKGFYPSDIAVEWESNGQPENNYKTTPPVLDSDGSFFLVSKLTVDKSRWQQGNVFSCSVMHEALHNHYTQKSLSLSP
light: DIQMTQSPSSLSASVGDRVTITCRASQDIHKYIAWYQQKPGQAPRLLIQYTSTLQPGVPSRFSGSGSGTDYTFTISSLQPEDIATYYCLQYEQLRTFGGGTKVEIKRTVAAPSVFIFPPSDEQLKSGTASVVCLLNNFYPREAKVQWKVDNALQSGNSQESVTEQDSKDSTYSLSSTLTLSKADYEKHKVYACEVTHQGLSSPVTKSFNRGEC
fold binding activity against H240-Kn033/H240-Hl033/L73-k0 (FcγRIIIa F): ≥ 100 fold
fold binding activity against H240-Kn033/H240-Hl033/L73-k0 (FcγRIIIa V): ≥ 100 fold

B4: H240-Kn201/H240-Hl076/L73-k0 (antibody, human IgG1, kappa)
heavy 1: QDQLVQSGAEVKKPGASVKVSCKASGFNIKDTYIQWVRQAPGQGLEWMGRIDPLRKQTKYREKFEGRVTITADTSTNTAYMELSSLRSEDTAVYYCVRSGREFDYWGQGTLVTVSSASTKGPSVFPLAPSSKSTSGGTAALGCLVKDYFPEPVTVSWNSGALTSGVHTFPAVLQSSGLYSLSSVVTVPSSSLGTQTYICNVNHKPSNTKVDKKVEPKSCDKTHTCPPCPAPEFQWGPMVFLFPPKPKDTLMISRTPEVTCVVVDVSDEEPEVKFNWYVDGVEVHNAKTKPREEQYNATYRVVSVLTVLHQDWLNGKEYKCKVSNKALPAPIEKTISKAKGQPREPQVCTLPPSRDELTKNQVSLWCLVKGFYPSDIAVEWESNGQPENNYKTTPPVLDSDGSFFLYSKLTVDKSRWQQGNVFSCSVMHEALHNHYTQKSLSLSP
heavy 2: QDQLVQSGAEVKKPGASVKVSCKASGFNIKDTYIQWVRQAPGQGLEWMGRIDPLRKQTKYREKFEGRVTITADTSTNTAYMELSSLRSEDTAVYYCVRSGREFDYWGQGTLVTVSSASTKGPSVFPLAPSSKSTSGGTAALGCLVKDYFPEPVTVSWNSGALTSGVHTFPAVLQSSGLYSLSSVVTVPSSSLGTQTYICNVNHKPSNTKVDKKVEPKSCDKTHTCPPCPAPELLGGPSVFLFPPKPKDTLMISRTPEVTCVVVDVSHEEPEVKFNWYVDGVEVHNAKTKPREEQYNSTYRVVSVLTVLHQDWLNGKEYKCKVSNDALPMPIEETISKAKGQPREPQVYTLPPSRCELTKNQVSLSCAVKGFYPSDIAVEWESNGQPENNYKTTPPVLDSDGSFFLVSKLTVDKSRWQQGNVFSCSVMHEALHNHYTQKSLSLSP
light: DIQMTQSPSSLSASVGDRVTITCRASQDIHKYIAWYQQKPGQAPRLLIQYTSTLQPGVPSRFSGSGSGTDYTFTISSLQPEDIATYYCLQYEQLRTFGGGTKVEIKRTVAAPSVFIFPPSDEQLKSGTASVVCLLNNFYPREAKVQWKVDNALQSGNSQESVTEQDSKDSTYSLSSTLTLSKADYEKHKVYACEVTHQGLSSPVTKSFNRGEC
fold binding activity against H240-Kn033/H240-Hl033/L73-k0 (FcγRIIIa F): ≥ 100 fold
fold binding activity against H240-Kn033/H240-Hl033/L73-k0 (FcγRIIIa V): ≥ 100 fold

B5: H240-Kn208/H240-Hl076/L73-k0 (antibody, human IgG1, kappa)
heavy 1: QDQLVQSGAEVKKPGASVKVSCKASGFNIKDTYIQWVRQAPGQGLEWMGRIDPLRKQTKYREKFEGRVTITADTSTNTAYMELSSLRSEDTAVYYCVRSGREFDYWGQGTLVTVSSASTKGPSVFPLAPSSKSTSGGTAALGCLVKDYFPEPVTVSWNSGALTSGVHTFPAVLQSSGLYSLSSVVTVPSSSLGTQTYICNVNHKPSNTKVDKKVEPKSCDKTHTCPPCPAPEDQWGPMVFLFPPKPKDTLMISRTPEVTCVVVDVSDEEPEVKFNWYVDGVEVHNAKTKPREEQYNATYRVVSVLTVLHQDWLNGKEYKCKVSNKALPAPIEKTISKAKGQPREPQVCTLPPSRDELTKNQVSLWCLVKGFYPSDIAVEWESNGQPENNYKTTPPVLDSDGSFFLYSKLTVDKSRWQQGNVFSCSVMHEALHNHYTQKSLSLSP
heavy 2: QDQLVQSGAEVKKPGASVKVSCKASGFNIKDTYIQWVRQAPGQGLEWMGRIDPLRKQTKYREKFEGRVTITADTSTNTAYMELSSLRSEDTAVYYCVRSGREFDYWGQGTLVTVSSASTKGPSVFPLAPSSKSTSGGTAALGCLVKDYFPEPVTVSWNSGALTSGVHTFPAVLQSSGLYSLSSVVTVPSSSLGTQTYICNVNHKPSNTKVDKKVEPKSCDKTHTCPPCPAPELLGGPSVFLFPPKPKDTLMISRTPEVTCVVVDVSHEEPEVKFNWYVDGVEVHNAKTKPREEQYNSTYRVVSVLTVLHQDWLNGKEYKCKVSNDALPMPIEETISKAKGQPREPQVYTLPPSRCELTKNQVSLSCAVKGFYPSDIAVEWESNGQPENNYKTTPPVLDSDGSFFLVSKLTVDKSRWQQGNVFSCSVMHEALHNHYTQKSLSLSP
light: DIQMTQSPSSLSASVGDRVTITCRASQDIHKYIAWYQQKPGQAPRLLIQYTSTLQPGVPSRFSGSGSGTDYTFTISSLQPEDIATYYCLQYEQLRTFGGGTKVEIKRTVAAPSVFIFPPSDEQLKSGTASVVCLLNNFYPREAKVQWKVDNALQSGNSQESVTEQDSKDSTYSLSSTLTLSKADYEKHKVYACEVTHQGLSSPVTKSFNRGEC
fold binding activity against H240-Kn033/H240-Hl033/L73-k0 (FcγRIIIa F): ≥ 100 fold
fold binding activity against H240-Kn033/H240-Hl033/L73-k0 (FcγRIIIa V): ≥ 100 fold
